Measurements taken from patent US20110118447A1.
Substitutions are numbered along the chain they refer to. In names and notes the source's numbering stands. Each block holds one molecule with its values, some of them ahead of it.

Columns and labels:
[1] = molecular target: binding partner (antigen) of ING-1, not given; test: Biacore; internal control identical to original
[2] = molecular target: binding partner (antigen) of ING-1; test: Biacore, internal control
[3] = molecular target: binding partner of C5A (XPA23); test: Biacore (K-off), clones identical to parent C5A (XPA23)
[4] = molecular target: binding partner of C5A (XPA23); test: Biacore; internal control, L96 L is identical to the original C5A (XPA23)
[5] = molecular target: binding partner of C5A (XPA23); test: Biacore, mutant vs original C5A (XPA23)

fold difference in affinity vs original [1]: 1.38 fold
Molecule: ING-1 antibody variable domain (original, unmodified)

fold difference in affinity vs original [2]: 1.38 fold
Molecule: ING-1 (original, unmodified variable domain) (antibody)

mean fold affinity of internal controls vs original [3]: 1.03 fold
fold difference in affinity in comparison to original [4]: 1.16 fold
B1: C5A (XPA23) (antibody, V domains shown)
VH: EVQLLESGGGLVQPGGSLRLSCAASGFTFSKYFMFWVRQAPGKGLEWVSVISPSGGMTRYADSVKGRFTISRDNSKNTLYLQMNSLRAEDTAVYYCARVGYGGNSDYWGQGTLVTVSS
VL: DIQMTQSPSSVSASVGDRLTIICRASQDINRWLAWYQQTPGNAPKLLIHSATSLQSGVPSRFSGSGSGTDFTLTINSLQPEDFATYYCQQADSFPLTFGGGTKVEIK

fold difference in affinity in comparison to original [5]: 0.06 fold
B2: C5A (XPA23) light chain variable region L96T (antibody, V domains shown)
VH: B1 VH
VL: B1 VL with L96T

fold difference in affinity in comparison to original [5]: 0.17 fold
B3: C5A (XPA23) light chain variable region F94P (antibody, V domains shown)
VH: B1 VH
VL: B1 VL with F94P

fold difference in affinity in comparison to original [5]: 0.26 fold
B4: C5A (XPA23) light chain variable region L96A (antibody, V domains shown)
VH: B1 VH
VL: B1 VL with L96A

fold difference in affinity in comparison to original [5]: 0.75 fold
B5: C5A (XPA23) light chain variable region S93G (antibody, V domains shown)
VH: B1 VH
VL: B1 VL with S93G

fold difference in affinity in comparison to original [5]: 0.2 fold
B6: C5A (XPA23) light chain variable region F94V (antibody, V domains shown)
VH: B1 VH
VL: B1 VL with F94V

fold difference in affinity in comparison to original [5]: 0.55 fold
B7: C5A (XPA23) light chain variable region F94L (antibody, V domains shown)
VH: B1 VH
VL: B1 VL with F94L

fold difference in affinity in comparison to original [5]: 0.88 fold
B8: C5A (XPA23) light chain variable region F94I (antibody, V domains shown)
VH: B1 VH
VL: B1 VL with F94I

fold difference in affinity in comparison to original [5]: 0.67 fold
B9: C5A (XPA23) light chain variable region L96I (antibody, V domains shown)
VH: B1 VH
VL: B1 VL with L96I

fold difference in affinity in comparison to original [5]: 3.83 fold
B10: C5A (XPA23) light chain variable region P95A (antibody, V domains shown)
VH: B1 VH
VL: B1 VL with P95A
